This passage reports EC50 results from patent US20110223178A1 (Human Genome Sciences, published 2011).

The labels stand for the following.
B1: IgG1 antibody comprising the VH and VL domains of scFv F003F01 (antibody, V domains shown)
VH: EVQLVQSGAEVRKPASSVKVSCKTSGGSFNDYSFNWVRQAPGQGLEWMGSIIPVFDMADYGQNFQGRLTITADESTTTAYMELSDLTPMDTAIYYCARVAMVGATHFDIWGQGTLVTVSS
VL: QSVLTQPPSASGTPGQRVTISCSGGSSNIGSNPVNWYQQVPGTAPKLLIYLSDQRPAGVPDRFSGSKSGTSASLAISGLQSEDEADYYCSTWDDSLNDPVVFGGGTKVTVLG
notes: IgG1; The printed VL start (142) looks late against the printed VL CDR1 (159-171)
B2: IgG1 antibody comprising the VH and VL domains of scFv F003A09 (antibody, V domains shown)
VH: QVQLVQSGAEVKKAGSSVKVSCKASGDTFSNFAISWVRQAPGHGLEWVGGIIPVFNTADYAQNFTDRVTISADKATKTVYMELRSLRSDDTAVYFCARTKIELDNDAFDIWGQGTLVTVSS
VL: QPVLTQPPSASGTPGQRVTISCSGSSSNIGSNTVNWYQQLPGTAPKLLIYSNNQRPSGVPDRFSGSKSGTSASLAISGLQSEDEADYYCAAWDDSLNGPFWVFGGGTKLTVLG
notes: Whole IgG1
B3: IgG1 antibody comprising the VH and VL domains of scFv F002G03 (antibody, V domains shown)
VH: QVQLVQSGAEVKKPGSSVKVSCKASGGTFNRYAISWVRQAPGQGLEWMGGIIPMFATPIYSQKFQDRVTITADESTSTAYMELSSLRSEDTAVYYCARDRTDYYDTDGYQSPDSWGKGTLVTVSS
VL: DIQMTQSPSTLSASIGDRVTITCRASQGINNYLAWYQQKPGRAPKLLIYAASSLQSGVPSRFSGSGSGTDFTLTISSLQPEDFATYYCLQDSDYPLTFGGGTKLEIKR
notes: Whole IgG1
B4: IgG1 antibody comprising the VH and VL domains of scFv F081C09 (antibody, V domains shown)
VH: QVQLVQSGAEVKKPGSSVRVSCKASGGSFSDYAIHWVRQAPGQGLEWMGGIIPIFGTANYAQKFQGRVTITADESTSTAYMELSSLRSEDTAVYYCAREAQYDDAFDIWGQRTMVTVSS
VL: QSVLTQPPSVSAAPGQKVTISCSGSTSNIGNNYVSWYQQHPGKAPKLMIYDVSKRPSGVPDRFSGSKSGNSASLDISGLQSEDEADYYCAAWDDSLSEFLFGTGTKLTVLG
notes: Whole IgG1; also called F0081C09
B5: IgG1 antibody comprising the VH and VL domains of scFv F003F09 (antibody, V domains shown)
VH: EVQLVQSGAEVRKPGSSVKVSCKASGDTFNNFAISWVRQAPGHGLEWVGGIIPVFNTADYAQNFTGRVTISADKATKTVYMELRSLRYDDTAVYFCARTKIELDNDAFDIWGRGTTVTVSS
VL: LPVLTQPPSASGTPGQRVTISCSGSTSNIGSNAVVWYQQLPGAAPKLLIYSNDQRPSGVPDRFSGSRSGTSASLAISGLQSEDEADYYCAAWDDSRDGPWVFGGGTKVTVLG
notes: Whole IgG1
B6: IgG1 antibody comprising the VH and VL domains of scFv F076F10 (antibody, V domains shown)
VH: EVQLVQSGAEVKKPGSSVKVFCKTSGGTFSSYAFGWVRQRPGQGLEWMGGIIPNFDAANYAQKFQDTVAFTADTSTNTLYLELSSLTSDDTAVYYCAREVGVHASGLGAFDIWGRGTLVTVSS
VL: QSVLTQPPSVSGAPRQRVTISCSGSSSNIGDNVVNWYQQLPGKAPKLLIYYDDLLPSGVSDRFSGSKSGTSASLAISGLQSEDEADYFCAAWDDSLDAYVFGTRTKVTVLG
notes: Whole IgG1; also called F0076F10
B7: IgG1 antibody comprising the VH and VL domains of scFv F076C06 (antibody, V domains shown)
VH: QVQLVQSGPEVKKPGSSVKVSCRASGGTFSTYAFSWVRQAPGQGLEWMGGIIPVFETPIYAQKLQGRLTITADTSTDTAYMELSNLRSGDTAVYYCAREWGDYYSSVSSGALHYWGRGTLVTVSS
VL: QAVLTQPSSASGTPGQRVTISCSGSSSNIGNNAVNWYQQLPGTAPKLLIYNNNQWPSGVPDRFSGSKSGTSASLAVSGLQSEDEADYYCAAWDDSLNGYVFGTGTQLTVLS
notes: IgG1
B8: IgG1 antibody comprising the VH and VL domains of scFv F002C08 (antibody, V domains shown)
VH: EVQLVESGAEVKKPGSSVKVSCKASGGTFSSYAISWVRQAPGQGLEWMGGIIPIFGTANYAQKFQGRVTITADESTSTAYMELSSLGSEDTAVYYCARESLTGDSELDLWGKGTLVTVSS
VL: QSVLTQPPSVSAAPGQKVTISCSGSTSNIGNNYVSWYQQHPGKAPKLMIYDVSKRPSGVPDRFSGSKSGNSASLDISGLQSEDEADYYCAAWDDSLSEFLFGTGTKLTVLG
notes: IgG1
B9: IgG1 antibody comprising the VH and VL domains of scFv F002D02 (antibody, V domains shown)
VH: EVQLVQSGAEVKKPGSSVKVSCKASGGTFSSYAISWVRQAPGQGLEWMGGIIPIFGTANYAQKFQGRVTITADESTSTAYMELSSLRSEDTAVYYCAREDIVGAVDGFDIWGRGTLVTVSS
VL: QSVLTQPPSVSAAPGQKVTISCSGSTSNIGNNYVSWYQQHPGKAPKLMIYDVSKRPSGVPDRFSGSKSGNSASLDISGLQSEDEADYYCAAWDDSLSEFLFGTGTKLTVLG
notes: IgG1
B10: IgG1 antibody comprising the VH and VL domains of scFv F076G06 (antibody, V domains shown)
VH: QMQLVQSGAEVRKPGSSVKVSCKASGDTFNNFAISWVRQAPGHGLEWVGGIIPVFNTADYAQNFTGRVTISADKATKTVYMELRSLRYDDTAVYFCARTKIELDNDAFDIWGQGTMVTVSS
VL: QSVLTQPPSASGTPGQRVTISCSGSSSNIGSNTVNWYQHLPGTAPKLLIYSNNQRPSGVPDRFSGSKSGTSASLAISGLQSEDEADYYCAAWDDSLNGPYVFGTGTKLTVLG
notes: IgG1

The target of one test is T1, Chemokine beta-4 (CK-β4) (human, UniProt P78556 27-96, 125I label in the CCR6 membrane binding assay (Example 5)).
T1 construct: also called CCL20; MIP-3α
T1 sequence (P78556 27-96 limits assumed): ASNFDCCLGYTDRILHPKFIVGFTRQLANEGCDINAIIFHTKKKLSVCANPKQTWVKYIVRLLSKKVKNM
Briefly: inhibition of 125I-CK-β4 binding to CCR6 membranes by IgG1, Expt 1. How it is done: (§1) The ability of anti-CK-β4 antibodies of the invention to inhibit the binding of CK-β4 to CCR6 may be tested in the following assay. This assay is performed in 96-well plates and each sample is tested in triplicate. A 1:3 serial dilution of anti-CK-β4 antibody is made starting with 200 nM solution of anti-CK-β4 antibody in binding buffer (50 mM HEPES, pH7.0, 5 mM MgCl₂, 1 mM CaCl₂, 0.5% protease free BSA, 0.033% CHAPS, 0.05% Tween 20, 0.05% sodium azide). To fifty microliters of each dilution of antibody are added 25 microliters of CCR6 membranes (40 micrograms/ml in binding buffer; available from Upstate Biotechnology, Charlottesville, Va. Catalog number 50-139M.) Lastly 25 microliters of ¹²⁵I-CK-β4 (0.8 nM in binding buffer) are added to the wells containing the mixture of antibody and membranes, making for a 100 microliter reaction volume. Total binding is measured using 50 microliters of binding buffer in lieu of 50 microliters of antibody dilution.
(§2) The reaction is incubated for 3 hours at room temperature. The plates are harvested in a Tomtec Cell Harvester. The reaction is washed through a filtermat B (Perkin Elmer Life Sciences, Inc. Boston, Mass. product Number 1450-521) presoaked in 0.3% polyethylamine using an ice cold wash buffer (25 mM Hepes, 5 mM MgCl₂, 1 mM CaCl₂, 0.5M NaCl, and 0.05% Tween 20). The filter is then dried and radioactivity bound to the filter is measured using a Wallac MicroBeta Trilux (Perkin Elmer Life Sciences, Inc.).
As for B1, the EC50 came out at 0.2 nM.

As to B2, the response was half-maximal at 0.3 nM (EC50).

The molecule B3 came in with an EC50 of 4.1 nM.

For another test, the target named is T1, Chemokine beta-4 (CK-β4). Briefly: inhibition of 125I-CK-β4 binding to CCR6 membranes by IgG1, Expt 2. The method, then: as §1, §2
B4 yielded an EC50 of 0.09 nM.

B5 returned an EC50 of 2.4 nM. This EC50 lies about 27-fold higher than the previous one.

B6 registered an EC50 of 0.49 nM.

The target in the next test is T1, Chemokine beta-4 (CK-β4). Briefly: inhibition of 125I-CK-β4 binding to CCR6 membranes by IgG1, Expt 3. The method, then:
as §1, §2
On to B1, for which the EC50 was 0.13 nM. That is a sub-nanomolar value.

B7: the midpoint of the response, the EC50, lay at 1.8 nM.

Turning to B8, the EC50 is 2.2 nM.

With B9, the EC50 is 4.5 nM.

For B2, the EC50 was determined as 0.46 nM.

Turning to B10, the concentration giving a half-maximal response (EC50) was determined as 1.7 nM.
